Reference: paper PMC13186708

Biological target: Alistipes sp. Cas12f (Al3Cas12f), wild type (Alistipes sp.)
Assay: SEC; apo Al3Cas12f without gRNA on an S200i 10/300 GL column; 50 mM Tris-HCl pH 7.5, 250 mM NaCl, 10 mM MgCl2, 0.5 mM EDTA, 5% glycerol, 0.5 mM TCEP; peak at about 11.5 mL, near the 158 kDa standard

stoichiometry N: 2
Substance: Alistipes sp. Cas12f (Al3Cas12f), wild type (enzyme)
